Experimental data taken from doi:10.1101/2023.12.20.572533, “MUT-7 exoribonuclease activity and localisation are mediated by an ancient domain” (bioRxiv, 2023).
Blank lines part the entries; values can stand above or below the binder they belong to.

Key:
[1] = biological target: T1, MUT-7FL/MUT-8CTD chain MUT-7FL;MUT-8CTD (Caenorhabditis elegans;Caenorhabditis …, UniProt P34607;Q19672 1-910;322-578, |); experiment: fluorescence polarisation; 50 mM KCl, 5 mM EDTA; FP: 50 nM RNA, 20 mM HEPES/NaOH pH 7.5, 50 mM KCl, 5 mM EDTA (C. elegans) or 250 mM NaCl (human EXD3 and MUT-7 D435A), room temperature, 30 min; details: protein: recombinant;recombinant; copies: 1;1; label: 5'-FAM; single strand
T1 sequence 1: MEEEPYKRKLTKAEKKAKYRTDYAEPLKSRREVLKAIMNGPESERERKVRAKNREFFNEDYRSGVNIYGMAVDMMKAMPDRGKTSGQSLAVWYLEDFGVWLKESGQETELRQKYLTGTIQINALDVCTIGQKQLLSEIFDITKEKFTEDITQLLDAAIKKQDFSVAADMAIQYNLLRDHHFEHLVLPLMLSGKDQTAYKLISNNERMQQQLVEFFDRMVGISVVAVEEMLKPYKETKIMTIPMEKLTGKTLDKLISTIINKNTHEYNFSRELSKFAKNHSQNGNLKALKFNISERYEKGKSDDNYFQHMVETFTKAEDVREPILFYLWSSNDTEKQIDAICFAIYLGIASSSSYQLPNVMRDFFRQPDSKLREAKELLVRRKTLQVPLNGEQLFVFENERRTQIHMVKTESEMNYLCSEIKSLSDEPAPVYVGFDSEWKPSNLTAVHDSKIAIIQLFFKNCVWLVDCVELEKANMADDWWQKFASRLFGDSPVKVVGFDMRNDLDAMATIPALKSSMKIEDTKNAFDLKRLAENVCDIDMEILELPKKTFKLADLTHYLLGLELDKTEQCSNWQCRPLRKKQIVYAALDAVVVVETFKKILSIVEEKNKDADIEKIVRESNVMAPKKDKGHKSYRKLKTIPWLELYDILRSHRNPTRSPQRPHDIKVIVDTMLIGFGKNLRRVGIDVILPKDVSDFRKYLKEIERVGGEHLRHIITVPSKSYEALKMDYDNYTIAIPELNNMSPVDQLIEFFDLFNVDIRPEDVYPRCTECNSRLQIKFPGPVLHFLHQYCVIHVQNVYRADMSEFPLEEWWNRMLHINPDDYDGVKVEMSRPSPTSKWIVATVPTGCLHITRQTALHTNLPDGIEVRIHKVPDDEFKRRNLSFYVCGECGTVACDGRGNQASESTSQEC
T1 sequence 2: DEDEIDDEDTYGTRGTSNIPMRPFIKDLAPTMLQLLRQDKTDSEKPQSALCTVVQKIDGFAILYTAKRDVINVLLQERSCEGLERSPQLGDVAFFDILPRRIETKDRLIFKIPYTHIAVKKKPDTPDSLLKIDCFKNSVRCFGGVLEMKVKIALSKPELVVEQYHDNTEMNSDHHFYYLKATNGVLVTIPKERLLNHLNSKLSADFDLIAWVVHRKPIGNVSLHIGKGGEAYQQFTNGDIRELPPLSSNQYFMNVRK

[2] = biological target: T2, MUT-8^NTD (1-235), purified (C. elegans, UniProt Q19672 1-235); experiment: ITC; cell 46 µM MUT-8^NTD, syringe 600 µM MUT-16^584-724; 20 °C; 25 mM Tris/HCl pH 7.5, 150 mM NaCl, 0.25 mM TCEP; 19 injections of 2 µL; mean of three experiments; details: both partners purified
T2 construct: C. elegans MUT-8 N-terminal domain construct, residues 1-235
T2 sequence (looked up): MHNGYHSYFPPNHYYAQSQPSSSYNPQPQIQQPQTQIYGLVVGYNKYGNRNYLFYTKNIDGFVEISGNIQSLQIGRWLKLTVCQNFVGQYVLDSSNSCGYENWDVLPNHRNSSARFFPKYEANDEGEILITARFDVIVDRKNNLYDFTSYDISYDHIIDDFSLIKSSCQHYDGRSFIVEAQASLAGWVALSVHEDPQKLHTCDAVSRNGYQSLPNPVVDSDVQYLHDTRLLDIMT

[3] = biological target: T3, MUT-7^FL/MUT-8^FL complex (C. elegans, UniProt P34607 1-910; Q19672 1-578); experiment: pull-down; purified proteins (5 µM), GST-tagged MUT-16 constructs as bait on glutathione resin; 20 mM HEPES/NaOH pH 7.5, 150 mM NaCl, 10% glycerol, 0.05% IGEPAL, 2 mM DTT; 4 °C; SDS-PAGE, Coomassie; details: both partners purified
T3 construct: C. elegans MUT-7, residues 1-910; C. elegans MUT-8 (RDE-2), residues 1-578; also called MUT-7/MUT-8; full-length MUT-7/MUT-8; source: E. coli BL21(DE3) derivative, co-expressed and purified as a complex through several chromatographic steps
T3 sequence (looked up) 1: T1 sequence 1
T3 sequence (looked up) 2: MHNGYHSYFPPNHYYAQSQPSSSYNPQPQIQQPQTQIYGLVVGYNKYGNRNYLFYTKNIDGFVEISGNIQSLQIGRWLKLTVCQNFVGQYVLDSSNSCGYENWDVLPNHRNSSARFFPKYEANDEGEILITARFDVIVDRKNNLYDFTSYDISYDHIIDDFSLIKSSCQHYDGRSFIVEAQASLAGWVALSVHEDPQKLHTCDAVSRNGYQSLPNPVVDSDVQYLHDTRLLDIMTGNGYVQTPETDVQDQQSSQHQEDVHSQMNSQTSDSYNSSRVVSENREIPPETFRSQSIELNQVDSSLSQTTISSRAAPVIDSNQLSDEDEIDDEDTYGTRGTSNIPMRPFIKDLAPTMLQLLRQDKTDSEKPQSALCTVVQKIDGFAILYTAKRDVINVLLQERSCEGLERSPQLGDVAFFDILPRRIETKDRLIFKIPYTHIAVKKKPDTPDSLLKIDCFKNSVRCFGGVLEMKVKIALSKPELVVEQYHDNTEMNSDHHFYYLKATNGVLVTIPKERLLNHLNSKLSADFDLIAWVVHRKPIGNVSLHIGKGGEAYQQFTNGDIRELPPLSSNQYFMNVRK

Binder: GUUGAUUGAAGAGUUC (ssRNA) [16-mer ssRNA]
Kd [1]: 0.17 µM

Kd [2]: ~13 µM
B1: MUT-16^584-724, purified (SEC, ITC) (domain or fragment, C. elegans, UniProt O62011 584-724, looked up)
chain: KKKSESSATDTSNTPPVDTVNVALPTPVVESSSTTAAPSIPVSTRPEVVVPPENPAPLREVGNFYSKSNHDEDRRNVQLPFTPADTHKPIKVAPKEPVRNPLLKERPSANGFINRRLPSHPAPPPVNQSQPANQPMQTAVY
notes: source: E. coli BL21(DE3) derivative, purified (alone, or co-expressed with MUT-8^NTD and purified as a complex)

binding result [3]: binds
B2: GST-tagged MUT-16^1-724 (domain or fragment, C. elegans, UniProt O62011 1-724, looked up)
chain: MSESDDDYPELDISDQYIDPLGIVVGPPPASYTETDREETPMQNRTEDDTNSYGNSSGEHDYDSYLDSGDDDFDVDAYYANDNMDEPPPETIPDNLIQNVIGRNDNADYDFSDASNPEIMKRDLQLFLSSSLLSNPLKFRSGYSSDELDDCLKSCMGYSLQVTAVLLLPPEIISQLPNDSKTEHAHALVRGGWLQSKEGAFFPVISDSERETVVSLMNGSEEQHKRQERKKKEADTFESEEKEIRTLLTFNMIAELLMAVRNEYSIRSVKYQILSTAYTNMVTGAAHANIFRKYKDILQLDPEKLWNNDWFKEYTNRGTLKKFLTTARFSEIVVSQANGKTVELYFRADDEGNRPVVLFTDEHIADVRNKWKTGNQRNQNYGSQGNYRAGGQRSDDRRGPQQRRNVIVPDPNYQPSTFAGGISNNADDDGSLQPTTSSHFNRNTDRSTSRPPRAPTSPVNRVMETDPLMGQGTSSGAPQRSAIPNPFGGAPALSRSTITNGNRGPSYGDRGERVQDVGDTTSDSEITSEGSYSDEDPEQKEIKRQRRKDKLKKKQERELRSREKHTKSKQQPPSKIETRFNTYKKKSESSATDTSNTPPVDTVNVALPTPVVESSSTTAAPSIPVSTRPEVVVPPENPAPLREVGNFYSKSNHDEDRRNVQLPFTPADTHKPIKVAPKEPVRNPLLKERPSANGFINRRLPSHPAPPPVNQSQPANQPMQTAVY
notes: source: E. coli BL21(DE3) derivative, purified as GST-tagged fusion protein
